Laboratory results reported in patent US6858210B1, “Therapeutic and diagnostic domain 1 β2GPI polypeptides and methods of using same” (La Jolla Pharmaceutical Co., priority 1998, dated 2005).

B1: --345: recombinant β2GPI deletion mutant with domains 3, 4, 5 (protein)
chain: GRIICPPPSIPTFATLRVYKPSAGNNSLYRDTAVFECLPQHAMFGNDTITCTTHGNWTKLPECREVKCPFPSRPDNGFVNYPAKPTLYYKDKATFGCHDGYSLDGPEEIECTKLGNWSAMPSCKASCKLPVKKATVVYQGERVKIQEKFKNGMLHGDKVSFFCKNKEKKCSYTEDAQCIDGTIEVPKCFKEHSSLAFWKTDASDVKPCGHHHHHH
B2: 1234-: recombinant β2GPI deletion mutant with domains 1, 2, 3, 4 (protein)
chain: GRTCPKPDDLPFSTVVPLKTFYEPGEEITYSCKPGYVSRGGMRKFICPLTGLWPINTLKCTPRVCPFAGILENGAVRYTTFEYPNTISFSCNTGFYLNGADSAKCTEEGKWSPELPVCAPIICPPPSIPTFATLRVYKPSAGNNSLYRDTAVFECLPQHAMFGNDTITCTTHGNWTKLPECREVKCPFPSRPDNGFVNYPAKPTLYYKDKATFGCHDGYSLDGPEEIECTKLGNWSAMPSCGHHHHHH
B3: 123--: recombinant β2GPI deletion mutant with domains 1, 2, 3 (protein)
chain: GRTCPKPDDLPFSTVVPLKTFYEPGEEITYSCKPGYVSRGGMRKFICPLTGLWPINTLKCTPRVCPFAGILENGAVRYTTFEYPNTISFSCNTGFYLNGADSAKCTEEGKWSPELPVCAPIICPPPSIPTFATLRVYKPSAGNNSLYRDTAVFECLPQHAMFGNDTITCTTHGNWTKLPECGHHHHHH

Tested on: rabbit anti-β2GPI
Experiment: Direct binding ELISA, nickel chelate-coated wells, rabbit antibody
Details: O.D. at 550 nm
Protocol: (§1) Nickel Chelate-coated microwell plates (NCP 010 00 Xenopore Corp. 374 Midland Ave. Saddle Brook, N.J. USA) were coated with 50 μl of serial dilutions of the various recombinant β2GPI, in PBS, at room temperature for 2 hours. The plates were washed three times with PBS and blocked with 75 μl of a 1% gelatin (Sigma #G-2500) in PBS for one hour room temperature. […] The plates were washed three times with PBS, 50 μl of alkaline phosphatase conjugated anti-immunoglobulin (anti-human IgG, gamma chain specific, Zymed #62-8422) or anti-rabbit IgG (Zymed #62-6122) diluted appropriately in 1% gelatin was added and incubated at 37° C. for one hour. The plates were washed three times with PBS, 50 μl of alkaline phosphatase PPMP chromogenic substrate solution was added and incubated for 30 minutes at room temperature. The optical density, at 550 nm, was determined by reading the plates in a microplate autoreader (Bio-Teck Instruments, model EL311).
(§2) Seven to nine different recombinant β2GPI mutant proteins were examined to determine if they could support the direct binding of affinity purified β2GPI-dependent antiphospholipid antibody preparations in the absence of anionic phospholipid. All recombinant mutant β2GPI were assayed with affinity purified β2GPI-dependent antiphospholipid antibody preparations from 11 different patients. Each mutant recombinant β2GPI protein was tested, in a dose dependent fashion and GST-6his was included as a negative control. The recombinant mutant β2GPI proteins were bound to nickel coated microtiter plates via their 6-his tail. All recombinant mutant β2GPI proteins tested bound rabbit anti-β2GPI showing that they were assessable by antibody (FIG. 5).

Molecule	Maximum O.D.
B1	1.993
B2	1.708
B3	1.971

Tested on: affinity purified β2GPI-dependent antiphospholipid antibody
Experiment: Direct binding ELISA, nickel chelate-coated wells charged with recombinant β2GPI proteins (no cardiolipin)
Design: species or system human
Details: Ab 6203; O.D. at 550 nm
Protocol: as §1, §2

Molecule	Maximum O.D.
B1	0.072
B2	0.668
B3	0.938

Same assay, conditions: Ab 6501; O.D. at 550 nm

Molecule	Maximum O.D.
B1	0.030
B2	0.628
B3	0.909

Same assay, conditions: Ab 6626; O.D. at 550 nm

Molecule	Maximum O.D.
B1	0.022
B2	0.563
B3	1.250

Same assay, conditions: Ab 6632; O.D. at 550 nm

Molecule	Maximum O.D.
B1	0.004
B2	0.003
B3	0.121

Same assay, conditions: Ab 6641; O.D. at 550 nm

Molecule	Maximum O.D.
B1	0.019
B2	0.145
B3	0.530

Same assay, conditions: Ab 6644; O.D. at 550 nm

Molecule	Maximum O.D.
B1	0.048
B2	0.768
B3	1.020

Same assay, conditions: Ab 6652; O.D. at 550 nm

Molecule	Maximum O.D.
B1	0.016
B2	0.135
B3	0.320

Same assay, conditions: Ab 6701; O.D. at 550 nm

Molecule	Maximum O.D.
B1	0.002
B2	0.715
B3	0.841

Same assay, conditions: Ab 7008; O.D. at 550 nm

Molecule	Maximum O.D.
B1	0.018
B2	0.149
B3	0.360

Same assay, conditions: Ab 7015; O.D. at 550 nm

Molecule	Maximum O.D.
B1	0.042
B2	0.454
B3	1.160

Same assay, conditions: Ab 7101; O.D. at 550 nm

Molecule	Maximum O.D.
B1	0.042
B2	0.843
B3	0.951

Tested on: affinity purified β2GPI-dependent antiphospholipid antibody
Experiment: Competitive inhibition ELISA: recombinant β2GPI proteins compete for antibody binding to coated full length recombinant β2GPI
Design: species or system human
Details: Ab 6203
Protocol: Microtiter plates (MaxiSorp™, Nalge Nunc International, Denmark) were coated with 50 μl of full length recombinant β2GPI at 10 μg/ml in 0.1 M bicarbonate, pH 9.5, incubated overnight at 4° C., washed three times with 0.15 M PBS, pH 7.2, and blocked for one hour at room temperature with 75 μl of 2% Non-fat Dried Milk (Carnation, 2% NFDM). Test inhibitors were diluted in 2% NFDM and 25 μl of each dilution was added to coated wells. Affinity purified β2GPI-dependent antiphospholipid antibody was diluted in 2% NFDM and 25 μl, of a constant concentration, was added to the wells, including a group of wells that had no inhibitor, which acted as the positive controls. The contents of the wells were mixed and the plates were incubated at 37° C. for one hour. The plates were washed three times with PBS, 50 μl of alkaline phosphatase conjugated anti-human IgG, gamma chain specific, (Zymed #62-8422) diluted appropriately in 2% NFDM was added and incubated at 37° C. for one hour. The plates were washed three times with PBS, 50 μl of alkaline phosphatase PPMP chromogenic substrate solution was added and incubated for 30 minutes, at room temperature. The Optical Density, at 550 nm, was determined by reading the plates in a microplate autoreader (Bio-Teck Instruments, model EL3 11). The percent inhibition was determined by dividing the OD550 obtained in the presence of inhibitor by the mean OD550 obtained from the wells without inhibitor and then multiplying by 100 (more particularly, [mean A550 obtained from control wells without inhibitor less A550 of background] minus [A550 obtained in presence of inhibitor less A550 of background] divided by [mean A550 obtained from control wells without inhibitor less A550 of background] times 100).
Seven to nine different recombinant β2GPI mutant proteins were used to determine the antigenic specificity of affinity purified β2GPI-dependent antiphospholipid antibody preparations from 13 different patients. Each mutant recombinant β2GPI protein was tested, in a dose dependent fashion, for its ability to inhibit affinity purified β2GPI-dependent antiphospholipid antibody from binding to full length recombinant β2GPI. The following values were also observed for domain 1 only recombinant protein (1 - - - -; see Table 2 for designations): […]

Max (maximum inhibition observed at concentrations tested) [%]	Molecule
10	B1
30	B2
75	B3

Same assay, conditions: Ab 6203; read-out: 50% (concentration to give 50% inhibition)

IC50 [nM]	Molecule
> 50000	B1
> 8000	B2
1000	B3

Same assay, conditions: Ab 6501

Max (maximum inhibition observed at concentrations tested) [%]	Molecule
15	B1
30	B2
85	B3

Same assay, conditions: Ab 6501; read-out: 50% (concentration to give 50% inhibition)

IC50 [nM]	Molecule
> 50000	B1
> 8000	B2
800	B3

Same assay, conditions: Ab 6509

Max (maximum inhibition observed at concentrations tested) [%]	Molecule
20	B1
80	B2
90	B3

Same assay, conditions: Ab 6509; read-out: 50% (concentration to give 50% inhibition)

IC50 [nM]	Molecule
> 15000	B1
3000	B2
300	B3

Same assay, conditions: Ab 6626

Max (maximum inhibition observed at concentrations tested) [%]	Molecule
20	B1
40	B2
90	B3

Same assay, conditions: Ab 6626; read-out: 50% (concentration to give 50% inhibition)

IC50 [nM]	Molecule
> 50000	B1
> 8000	B2
800	B3

Same assay, conditions: Ab 6632

Max (maximum inhibition observed at concentrations tested) [%]	Molecule
20	B1
60	B2
90	B3

Same assay, conditions: Ab 6632; read-out: 50% (concentration to give 50% inhibition)

IC50 [nM]	Molecule
> 50000	B1
2000	B2
200	B3

Same assay, conditions: Ab 6641

Max (maximum inhibition observed at concentrations tested) [%]	Molecule
10	B1
60	B2
60	B3

Same assay, conditions: Ab 6641; read-out: 50% (concentration to give 50% inhibition)

IC50 [nM]	Molecule
> 15000	B1
2000	B2
4000	B3

Same assay, conditions: Ab 6644

Max (maximum inhibition observed at concentrations tested) [%]	Molecule
10	B1
50	B2
90	B3

Same assay, conditions: Ab 6644; read-out: 50% (concentration to give 50% inhibition)

IC50 [nM]	Molecule
> 50000	B1
8000	B2
700	B3

Same assay, conditions: Ab 6652

Max (maximum inhibition observed at concentrations tested) [%]	Molecule
30	B1
100	B2
95	B3

Same assay, conditions: Ab 6652; read-out: 50% (concentration to give 50% inhibition)

IC50 [nM]	Molecule
> 15000	B1
500	B2
300	B3

Same assay, conditions: Ab 6701

Max (maximum inhibition observed at concentrations tested) [%]	Molecule
20	B1
30	B2
95	B3

Same assay, conditions: Ab 6701; read-out: 50% (concentration to give 50% inhibition)

IC50 [nM]	Molecule
> 15000	B1
> 8000	B2
300	B3

Same assay, conditions: Ab 7008

Max (maximum inhibition observed at concentrations tested) [%]	Molecule
20	B1
50	B2
80	B3

Same assay, conditions: Ab 7008; read-out: 50% (concentration to give 50% inhibition)

IC50 [nM]	Molecule
> 50000	B1
> 8000	B2
400	B3

Same assay, conditions: Ab 7015

Max (maximum inhibition observed at concentrations tested) [%]	Molecule
10	B1
50	B2
90	B3

Same assay, conditions: Ab 7015; read-out: 50% (concentration to give 50% inhibition)

IC50 [nM]	Molecule
> 50000	B1
8000	B2
700	B3

Same assay, conditions: Ab 7101

Max (maximum inhibition observed at concentrations tested) [%]	Molecule
5	B1
20	B2
70	B3

Same assay, conditions: Ab 7101; read-out: 50% (concentration to give 50% inhibition)

IC50 [nM]	Molecule
> 50000	B1
> 8000	B2
3000	B3

Same assay, conditions: Ab 7104

Max (maximum inhibition observed at concentrations tested) [%]	Molecule
20	B1
90	B2
98	B3

Same assay, conditions: Ab 7104; read-out: 50% (concentration to give 50% inhibition)

IC50 [nM]	Molecule
> 50000	B1
700	B2
1000	B3
